According to CN113214399A (SHENZHEN INNOVA NANOBODI CO LTD, dated 2021):

T1: 重组AFP抗原 (甲胎蛋白, α-fetoprotein) (UniProt P02771 19-609, limits assumed)
T1 construct: Bought recombinant antigen used to immunise the alpaca
T1 sequence (looked up): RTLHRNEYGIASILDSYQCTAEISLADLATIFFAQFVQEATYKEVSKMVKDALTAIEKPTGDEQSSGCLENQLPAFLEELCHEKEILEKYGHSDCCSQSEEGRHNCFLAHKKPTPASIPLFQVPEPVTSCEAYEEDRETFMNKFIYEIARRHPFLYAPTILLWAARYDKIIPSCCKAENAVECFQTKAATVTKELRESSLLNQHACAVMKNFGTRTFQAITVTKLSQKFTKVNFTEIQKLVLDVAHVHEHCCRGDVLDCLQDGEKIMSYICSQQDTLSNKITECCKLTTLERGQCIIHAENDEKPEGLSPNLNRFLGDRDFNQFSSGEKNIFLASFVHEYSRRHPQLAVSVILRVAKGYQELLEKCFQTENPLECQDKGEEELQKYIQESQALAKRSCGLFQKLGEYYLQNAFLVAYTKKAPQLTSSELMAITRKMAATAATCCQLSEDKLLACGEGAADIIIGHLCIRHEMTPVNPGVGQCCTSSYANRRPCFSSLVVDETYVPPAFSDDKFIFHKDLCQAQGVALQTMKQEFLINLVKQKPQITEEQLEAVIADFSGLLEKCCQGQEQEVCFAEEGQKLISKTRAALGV

T2: 血清标本中的AFP抗原 (UniProt P02771 19-609)
T2 construct: AFP in serum samples, detected by the double-antibody sandwich assay; also called 质控血清AFP; 标准血清中的AFP
T2 sequence (looked up): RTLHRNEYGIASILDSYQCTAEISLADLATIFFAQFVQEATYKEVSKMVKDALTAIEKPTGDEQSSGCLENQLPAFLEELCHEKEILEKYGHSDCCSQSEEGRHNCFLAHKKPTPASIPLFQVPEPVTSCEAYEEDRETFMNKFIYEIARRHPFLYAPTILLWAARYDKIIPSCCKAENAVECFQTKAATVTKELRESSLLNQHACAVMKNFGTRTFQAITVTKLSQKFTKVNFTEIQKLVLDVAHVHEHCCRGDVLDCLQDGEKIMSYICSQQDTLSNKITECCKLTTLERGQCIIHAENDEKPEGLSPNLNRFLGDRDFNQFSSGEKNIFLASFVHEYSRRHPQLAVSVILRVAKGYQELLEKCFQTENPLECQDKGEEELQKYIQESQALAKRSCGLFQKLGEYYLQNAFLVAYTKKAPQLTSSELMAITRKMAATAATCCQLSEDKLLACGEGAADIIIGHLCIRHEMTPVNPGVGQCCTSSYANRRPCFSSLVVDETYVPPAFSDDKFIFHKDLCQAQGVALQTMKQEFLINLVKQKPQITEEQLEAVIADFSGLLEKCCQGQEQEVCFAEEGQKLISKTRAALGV

B1: 纳米抗体1C5 (VHH)
VHH: QVQLQESGGGLVQAGGSLRLSCKASERTFSSYSMAWYRQAPGKKREFVASISWDDERTYYTDSVKGRFTISRPNAKNTVYLQMNSLKPEDTAVYYCAVGGLSDGLGPSYDYWGQGTQVTVSS
B2: 带有化学发光区序列的纳米抗体1C5-HAP (other)
chain: QVQLQESGGGLVQAGGSLRLSCKASERTFSSYSMAWYRQAPGKKREFVASISWDDERTYYTDSVKGRFTISRPNAKNTVYLQMNSLKPEDTAVYYCAVGGLSDGLGPSYDYWGQGTQVTVSSGGGGSGGGGSGGGGSIIPVEEENPDFWNREAAEALGAAKKLQPAQTAAKNLIIFLGDGMGVSTVTAARILKGQKKDKLGPEIPLAMDRFPYVALSKTYNVDKHVPDSGATATAYLCGVKGNFQTIGLSAAARFNQCNTTRGNEVISVMNRAKKAGKSVGVVTTTRVQHASPAGTYAHTVNRNWYSDADVPASARQEGCQDIATQLISNMDIDVILGGGRKYMFRMGTPDPEYPDDYSQGGTRLDGKNLVQEWLAKRQGARYVWNRTELMQASLDPSVTHLMGLFEPGDMKYEIHRDSTLDPSLMEMTEAALRLLSRNPRGFFLFVEGGRIDHGHHESRAYRALTETIMFDDAIERAGQLTSEEDTLSLVTADHSHVFSFGGYPLRGSSIFGLAPGKARDRKAYTVLLYGNGPGYVLKDGARPDVTESESGSPEYRQQSAVPLDEETHAGEDVAVFARGPQAHLVHGVQEQTFIAHVMAFAACLEPYTACDLAPPAGTTD
notes: Expressed in 293 cells

How the values were obtained:
[1] = biological target: T1, 重组AFP抗原 (甲胎蛋白, α-fetoprotein); assay: Biacore sequential injection on immobilised antigen
血清标本中的AFP抗原 = biological target: T2, 血清标本中的AFP抗原; assay: Double-antibody sandwich chemiluminescence immunoassay, detection antibody

Row | Binder | binding result [1] | binding result (血清标本中的AFP抗原)
1 | B1 | binds | –
2 | B2 | – | binds
